How the values were obtained:
human HNF-4α [1] = experiment: in vitro protein degradation test of HNF-4α by calpain (Western blotting); assay type: biochemical; settings: 1 hour at 37° C.
Description: Using the HNF-4α expression plasmid, in vitro synthesis of HNF-4α protein was conducted using the TNT T7 Quick Coupled Transcription/Translation System (Promega, Inc.). That is, the HNF-4α expression plasmid was mixed with TNT T7 Quick Master Mix, and then incubated for 1.5 hours at 30° C. in the presence of methionine to synthesize HNF-4α.
The in vitro protein degradation test was carried out by adding m-calpain extracted from rabbit muscle (Protease, Calcium-Activated Neutral (calpain), Sigma Chemical Co.) at a final concentration of 50 μg/mL to the synthesized HNF-4α, and then incubating for 1 hour at 37° C. in the presence of 200 mM Tris-HCl (pH 7.8)/1 mM dithiothreitol (DTT)/6 mM CaCl2. To conduct a degradation test in the absence of calcium, a test sample was prepared by adding 10 mM ethylenediaminetetraacetic acid (EDTA) instead of 6 mM CaCl2, and the sample was then incubated in a similar manner. The samples after incubation were added to an equal volume of 2× sodium dodecyl sulfate (SDS) sample buffer (4% SDS/125 mM Tris-HCl, pH 6.8/20% glycerol/0.01% bromphenol blue (BPB)/10% β-mercaptoethanol), heated for 5 minutes, and subjected to 10% SDS-PAGE for separation. Thereafter, Western blotting was carried out to detect HNF-4α using anti-HNF-4α antibody/HNF-4α (C-19) antibody (Santa Cruz Biotechnology, Inc.) and anti-Xpress antibody (Invitrogen, Inc.). An ECL Western blotting detection kit (Amersham pharmacia biotech) was used for the detection.
The final concentration of human m-calpain in the reaction system was 2.33 mg/mL as the protein concentration of the lysate of sf-9 cells that expressed human m-calpain. The final concentration of rat m-calpain in the reaction system was 59 units/mL. A degradation test was also conducted in the same manner without addition of calpain. Further, to test for degradation in the absence of calcium, a sample was prepared by adding 10 mM of EDTA instead of 6 mM CaCl2, and a degradation test was conducted with the sample in a similar manner. The samples after incubation were added to an equal volume of 2×SDS sample buffer, heated for 5 minutes, and subjected to 5-20% SDS-PAGE for separation. Thereafter, Western blotting was carried out to detect HNF-4α using anti-HNF-4α antibody/HNF-4α (C-19) antibody. An ECL Western blotting detection kit was used for the detection.
An in vitro protein degradation test was carried out by adding μ-calpain to HNF-4α at a final concentration of 50 units/mL, and incubating for 1 hour at 37° C. in the presence of 200 mM Tris-HCl (pH 7.8)/1 mM DTT/6 mM CaCl2. […]

human HNF-4α [2] = biological target: T1, human HNF-4α (Homo sapiens, UniProt P41235); experiment: binding test by intracellular coexpression/immunoprecipitation in HEK293T cells; assay type: cell-based; settings: FLAG-tagged m-calpain coexpressed with Xpress-tagged HNF-4α in HEK293T cells
T1 construct: expressed in transfected cells; host or cells: HEK293T
T1 sequence (P41235 10-474): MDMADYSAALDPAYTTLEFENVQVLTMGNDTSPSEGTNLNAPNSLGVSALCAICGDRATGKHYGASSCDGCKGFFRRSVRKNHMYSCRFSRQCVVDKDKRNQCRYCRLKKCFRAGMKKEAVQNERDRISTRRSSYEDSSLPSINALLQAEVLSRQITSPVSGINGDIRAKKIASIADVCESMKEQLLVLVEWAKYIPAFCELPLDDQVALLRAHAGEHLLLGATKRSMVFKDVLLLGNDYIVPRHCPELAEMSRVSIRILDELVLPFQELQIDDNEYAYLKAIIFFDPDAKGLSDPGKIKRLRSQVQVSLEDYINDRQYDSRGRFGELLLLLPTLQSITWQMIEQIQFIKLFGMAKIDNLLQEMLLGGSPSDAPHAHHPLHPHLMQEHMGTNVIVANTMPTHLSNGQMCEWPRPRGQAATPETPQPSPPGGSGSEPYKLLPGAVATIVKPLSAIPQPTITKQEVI
Description: First, the m-calpain gene was co-transfected with the HNF-4α gene into HEK293T cells. More specifically, after culturing a total number of 1.3×10^6 HEK293T cells for 4 hours at 37° C. in the presence of 5% CO2 (Petri dish with 60 mm diameter), 5 μg of HNF4α expression plasmid or pcDNA 3.1/His plasmid as a negative control was transfected thereto together with 5 μg of m-calpain expression plasmid using the FuGENE 6 Transfection Reagent (Roche Applied Science). After two days culturing, the cells were washed with cold phosphate buffered saline (−) (hereunder, referred to as “PBS(−)”), suspended in 500 μl of cell lysis buffer (20 mM HEPES, pH 7.5/150 mM NaCl/1 mM EDTA/1% Triton X-100/1 mM phenylmethyl sulfonyl fluoride (PMSF)), and left to stand on ice for 20 mins. Thereafter, the cells were subjected to centrifugation at 15,000 rpm for 20 min at 4° C. to collect the supernatant for use as cell lysate. Subsequently, the collected lysate was added to 18 μl of Protein G Sepharose 4 Fast Flow (Amersham Pharmacia Biotech) that was pretreated with TBS (pH 8.0) containing 0.1% bovine serum albumin, and mixed by inversion for 2 hours at 4° C., followed by centrifugation to collect the supernatant. 0.6 μg of anti-HNF-4α antibody/HNF-4α (C-19) antibody was added to the collected supernatant, and mixed by inversion for 1 hour at 4° C. […]

binding to HNF-4α (coprecipitation with anti-HNF-4α antibody) (human HNF-4α [2]): coprecipitated
B1: human m-calpain: lysate of sf-9 insect cells coexpressing human m-calpain with calpain small subunit 1; FLAG-tagged, expressed in HEK293T cells, in Example 3 (protein, UniProt P17655 20-700; P04632 1-268, looked up)
Calpain-2 catalytic subunit: SHDRAIKYLNQDYEALRNECLEAGTLFQDPSFPAIPSALGFKELGPYSSKTRGIEWKRPTEICADPQFIIGGATRTDICQGALGDCWLLAAIASLTLNEEILARVVPLNQSFQENYAGIFHFQFWQYGEWVEVVVDDRLPTKDGELLFVHSAEGSEFWSALLEKAYAKINGCYEALSGGATTEGFEDFTGGIAEWYELKKPPPNLFKIIQKALQKGSLLGCSIDITSAADSEAITFQKLVKGHAYSVTGAEEVESNGSLQKLIRIRNPWGEVEWTGRWNDNCPSWNTIDPEERERLTRRHEDGEFWMSFSDFLRHYSRLEICNLTPDTLTSDTYKKWKLTKMDGNWRRGSTAGGCRNYPNTFWMNPQYLIKLEEEDEDEEDGESGCTFLVGLIQKHRRRQRKMGEDMHTIGFGIYEVPEELSGQTNIHLSKNFFLTNRARERSDTFINLREVLNRFKLPPGEYILVPSTFEPNKDGDFCIRVFSEKKADYQAVDDEIEANLEEFDISEDDIDDGFRRLFAQLAGEDAEISAFELQTILRRVLAKRQDIKSDGFSIETCKIMVDMLDSDGSGKLGLKEFYILWTKIQKYQKIYREIDVDRSGTMNSYEMRKALEEAGFKMPCQLHQVIVARFADDQLIIDFDNFVRCLVRLETLFKIFKQLDPENTGTIELDLISWLCFSVL
Calpain small subunit 1: MFLVNSFLKGGGGGGGGGGGLGGGLGNVLGGLISGAGGGGGGGGGGGGGGGGGGGGTAMRILGGVISAISEAAAQYNPEPPPPRTHYSNIEANESEEVRQFRRLFAQLAGDDMEVSATELMNILNKVVTRHPDLKTDGFGIDTCRSMVAVMDSDTTGKLGFEEFKYLWNNIKRWQAIYKQFDTDRSGTICSSELPGAFEAAGFHLNEHLYNMIIRRYSDESGNMDFDNFISCLVRLDAMFRAFKSLDKDGTGQIQVNIQEWLQLTMYS
modifications: FLAG tag
degradation of HNF-4α (human HNF-4α [1]; in the absence of calcium (10 mM EDTA instead of CaCl2)): not observed
degradation of HNF-4α (human HNF-4α [1]; in the presence of calcium (6 mM CaCl2), Western blotting): observed
